Assay results taken from US20140302034A1 (STEM CENTRX, published 2014).

T1: recombinant human EFNA3 His fusion protein (human, UniProt P52797 23-214)
T1 construct: also called ephrinA3-His; immobilized human EFNA3; not shown: His tag
T1 sequence: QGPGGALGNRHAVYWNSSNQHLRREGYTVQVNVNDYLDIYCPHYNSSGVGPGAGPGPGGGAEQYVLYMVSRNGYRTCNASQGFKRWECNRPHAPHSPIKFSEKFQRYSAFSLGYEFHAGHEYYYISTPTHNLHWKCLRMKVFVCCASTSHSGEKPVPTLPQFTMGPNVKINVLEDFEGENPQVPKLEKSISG

T2: mouse EFNA3 (mouse, UniProt O08545)
T2 construct: the sheet prints only 'Ms XR'; also called mouse ephrin-A3 homolog
T2 sequence (ligand, looked up): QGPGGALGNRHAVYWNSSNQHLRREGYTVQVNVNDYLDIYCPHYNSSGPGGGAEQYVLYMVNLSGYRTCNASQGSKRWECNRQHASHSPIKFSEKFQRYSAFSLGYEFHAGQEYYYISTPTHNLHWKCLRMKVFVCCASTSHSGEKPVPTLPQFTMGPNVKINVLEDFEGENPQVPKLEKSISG


How the values were obtained:
[1] = target: T1, recombinant human EFNA3 His fusion …; assay: BLI (ForteBio RED), antigen concentration series; column Affinity (nM)
Procedure: Various methods were used to analyze the immunochemical characteristics of selected EFNA1 and EFNA3 modulators generated as set forth above. Specifically, a number of these antibodies were characterized as to affinity, kinetics, binning, and cross reactivity with regard to cynomolgus and mouse homologs (e.g., by ForteBio). The reactivity of the modulators was also measured by Western blot using reduced and non-reduced samples to provide some indication as to whether the epitopes were linear or not. In addition, the antibodies were tested for their ability to neutralize (e.g., block receptor ligand interaction as per Example 11), and were benchmarked for their relative EC₅₀ of killing by in vitro cytotoxicity assay (e.g., as per Examples 12-14). The results of this characterization are set forth in tabular form in FIG. 8 for modulators that primarily react with EFNA1 and in FIG. 9 for modulators that primarily react with EFNA3. Affinities and kinetic constants kₒₙ and koff of the selected modulators were measured using bio-layer interferometry analysis on a ForteBio RED (ForteBio, Inc.) with a standard antigen concentration series.

[2] = target: recombinant human EFNA1 His fusion protein (human) (UniProt P20827); assay: as above
Sequence of recombinant human EFNA1 His fusion protein (human) (P20827 19-182 limits assumed): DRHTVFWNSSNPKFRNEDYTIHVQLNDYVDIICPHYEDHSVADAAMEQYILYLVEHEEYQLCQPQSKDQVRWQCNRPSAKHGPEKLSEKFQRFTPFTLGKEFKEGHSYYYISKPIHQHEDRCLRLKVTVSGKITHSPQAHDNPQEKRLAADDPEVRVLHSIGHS

mouse EFNA3 = target: T2, mouse EFNA3; assay: cross-reactivity with the mouse homolog (e.g. by ForteBio)

Row | Kd [1] | Kd [2] | binding result (mouse EFNA3) | Binder
1 | 1 nM |  |  | SC11.51 (antibody, V domains shown, Murine monoclonal antibody from a hybridoma; also called EFNA3 modulator SC11.51) VH: EVQLQQSGPELVKPGASVKISCKASGYTFTDYYMNWVKQTHGKSLEWIGDITPNSGGPTYNQNFKGKATLTVDRSSTTAFMELRSLTSDDSAVYYCVRSAYYYGTNYDFDYWGQGTTLTVSS VL: QIVLTQSPAIMSASPGEKVTMTCSASSSVTYMYWYQQKPGSSPKPWIYRTSNLASGVPTRFSGSGSGTSYSLTISSVEAEDTATYYCQQYSDYPLTFGAGTKLELK
2 |  | 0.5 nM |  | SC9.20 (antibody, V domains shown) VH: DVQLQESGPGLVKPSQSLSLTCSVTGYSITSGYYWNWIRQFPGNRLEWMAYISYDGSNDYNPSLKNRISITRDTSKNQFFLKLNSVTTEDTATYYCARGYPILFAYWGQGTLVTVSA VL: DIKMTQSPSSMNASLGERVSITCKTSQDINSYLSWLQQKPGKSPKTLIYRANRLVDGVPSRFSGSGSGQDYSLTISSLEYEDMGIYYCLQYDEFPLTFGIGTKLELK
3 | 0.2 nM |  |  | SC11.32 (antibody, V domains shown, Murine monoclonal antibody from a hybridoma; also called EFNA3 modulator SC11.32) VH: QVQLQQPGAEIVRPGASVKLSCKASGYTFTAYWMHWVKQRPGQGPEWIGAIDPSDSYTYYNQKFKGKATLTVDTSSNSAYMQLSSLTSEDSAVYFCARWDYYDGNWGQGTTLTVSS VL: DVVMTQTPLSLPVSLGDQASISCRSSQSLVHSDGNTYLHWYLQKPGQSPKLLIYRVSNRFSGVPDRFSGSGSGTDFTLKISRVEAEDLGVYFCSQSTHVPYTFGGGTKLEIK
4 | 2 nM |  | no binding | SC11.34 (antibody, V domains shown, Murine monoclonal antibody from a hybridoma; also called EFNA3 modulator SC11.34) VH: DVHLQETGPGLVKPSQSLSVTCTVTGYSITSDYAWNWIRQFPGNKLEWMGYISYSGGTRYNPSVKSRISITRDTSKNQFFLQLNSVTTEDTATYYCARGPYAGYPAWFDYWGPGTLVTVSA VL: ENVLTQSPAIMSASLGEKVTMSCRANSSINYMYWYQQKSDASPKLWIYYTSNLAPGVPARFSGSGSGNSYSLTISSMEGEDAATYYCQQFTSSPWTFGGGTKLEIK
